Patent US20240425846A1

B1: Her2_G98A scFv (scFv)
scFv: MQVQLVQSGAEVKKPGESLKISCKGSGYSFTSYWIAWVRQMPGKGLEYMGLIYPGDSDTKYSPSFQGQVTISVDKSVSTAYLQWSSLKPSDSAVYFCARHDVAYCSSSNCAKWPEYFQHWGQGTLVTVSSGGGGSGGGGSGGGGSQSVLTQPPSVSAAPGQKVTISCSGSSSNIGNNYVSWYQQLPGTAPKLLIYGHTNRPAGVPDRFSGSKSGTSASLAISGFRSEDEADYYCASWDYTLSGWVFGGGTKLTVLGYMASGAEFGSGGQKQAEEAAAKAAADAKAKAEADAKAAEEAAKKAAADAKKKAEA
B2: G98A Fab (Fab)
VH: MQVQLVQSGAEVKKPGESLKISCKGSGYSFTSYWIAWVRQMPGKGLEYMGLIYPGDSDTKYSPSFQGQVTISVDKSVSTAYLQWSSLKPSDSAVYFCARHDVAYCSSSNCAKWPEYFQHWGQGTLVTVSSGGGGSGGGGSGGGGSQSVLTQPPSVSAAPGQKVTISCSGSSSNIGNNYVSWYQQLPGTAPKLLIYGHTNRPAGVPDRFSGSKSGTSASLAISGFRSEDEADYYCASWDYTLSGWVFGGGTKLTVLG
VL: B2 VH

Assays:
[1] = target: biotinylated human Her2 (HE2-H822R, Acro Biosystems) (human) (UniProt P04626); assay: deep screening, equilibrium fit
[2] = target: biotinylated human Her2 (HE2-H822R, Acro Biosystems) (human) (UniProt P04626); assay: deep screening, equilibrium fit (column DS KD (M))
[3] = target: biotinylated human Her2 (HE2-H822R, Acro Biosystems) (human) (UniProt P04626); assay: deep screening, equilibrium fit (column DS KD (M)); remark: listed apart in the source
[4] = target: biotinylated human Her2 (HE2-H822R, Acro Biosystems) (human) (UniProt P04626); assay: deep screening, biphasic dissociation fit, phase 1
[5] = target: biotinylated human Her2 (HE2-H822R, Acro Biosystems) (human) (UniProt P04626); assay: deep screening, biphasic dissociation fit, phase 2
[6] = target: biotinylated human Her2 (HE2-H822R, Acro Biosystems) (human) (UniProt P04626); assay: flow cell kinetic dissociation, ribosome-displayed scFv, buffer wash after Her2-biotin/AF532-streptavidin
[7] = target: biotinylated human Her2 (HE2-H822R, Acro Biosystems) (human) (UniProt P04626); assay: flow cell equilibrium binding, ribosome-displayed scFv, 0.03-100 nM Her2-biotin and 100 nM AF532-streptavidin
[8] = target: biotinylated human Her2 (HE2-H822R, Acro Biosystems) (human) (UniProt P04626); assay: deep screening ('HER2affmat'), ribosome-displayed scFv on flow cell, 5 minutes of wash after 100 nM Her2-biotin:AF532-streptavidin
[9] = target: biotinylated human Her2 (HE2-H822R, Acro Biosystems) (human) (UniProt P04626); assay: BLI (Octet), Her2-biotin on streptavidin tip, Fab at 20 nM, 1:1 fit; the filing doubts the fit because the response was low

Binder	Kd [1] [nM]	Kd [2] [nM]	Kd [3] [nM]	koff [4] [s⁻¹]	koff [5] [s⁻¹]	koff [6] [s⁻¹]	Kd [7] [nM]	fluorescent intensity at the 5-minute wash step [8]	Kd [9] [nM]
B1	886	24	887	7.03e-05	0.0134	0.000567	16.2	190	
B2									46.9
